Reference: patent US20160074488A1 (UNIVERSITY OF CHICAGO, published 2016)

B2: Q11 β-sheet fibrillizing peptide (assembled as Q11 nanofibers, gels or microgels) (peptide)
peptide: QQKFQFQFEQQ
notes: Synthetic peptide; stands in the assays as a supramolecular nanofiber of many copies; also called Q11 gels; Q11 microgels

Key:
[1] = target: B2; experiment: loss of tryptophan fluorescence from the supernatant
[2] = target: the molecule itself; experiment: circular dichroism (FIGS. 1B-C)
[3] = target: gold-labeled streptavidin (streptavidin-5 nm gold particles, Invitrogen cat. # A32360) (UniProt P22629 37-163, limits assumed, bound to 5 nm gold particles); experiment: gold TEM
Sequence of gold-labeled streptavidin (streptavidin-5 nm gold particles, Invitrogen cat. # A32360) (P22629 37-163 limits assumed, one chain of several): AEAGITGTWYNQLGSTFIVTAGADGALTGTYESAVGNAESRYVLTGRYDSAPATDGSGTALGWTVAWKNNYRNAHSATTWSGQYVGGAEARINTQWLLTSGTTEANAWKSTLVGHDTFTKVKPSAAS

[4] = target: T1, βTail-cutinase (fusion of βTail and the fungal enzyme cutinase); experiment: loss of protein from the supernatant (µBCA)
T1 construct: also called βT-cut

[5] = target: the molecule itself; experiment: TEM and thioflavin T fluorescence
[6] = target: B2; experiment: circular dichroism

B1: Tryptophan-terminated βTail (peptide)
peptide: WGSGSMALKVELEKLKSELVVLHSELHKLKSEL
notes: Synthetic peptide; also called W-βTail; W-βT
[1]
  binding result: binds

## B2
[2]
  binding result: binds
[3]
  binding result: no binding
[4]
  binding result: binds

B3: HK-Q11 β-sheet fibrillizing peptide (nanofibers) (peptide)
peptide: QQKFQFQFHQQ
notes: Synthetic peptide assembled into nanofibers
[5]
  binding result: binds

B4: βTail peptide (peptide)
peptide: MALKVELEKLKSELVVLHSELHKLKSEL
[2]
  binding result: binds
[6]
  binding result: binds
